Results published in paper PMC2856916.

Legend:
[1] = system: histone octamer unacetylated H3 (smFRET); experiment: single-molecule FRET; conditions: reference; Binding assay buffers not given in material; array DNA kept in 2 M NaCl, 10 mM TEA, 1 mM EDTA; reconstituted arrays dialysed into 1 mM MgCl2, 10 mM TEA pH 7.4
[2] = system: histone octamer H3 K56Ac (smFRET); experiment: single-molecule FRET; conditions: DNA breathing increased by K56Ac; Binding assay buffers not given in material; array DNA kept in 2 M NaCl, 10 mM TEA, 1 mM EDTA; reconstituted arrays dialysed into 1 mM MgCl2, 10 mM TEA pH 7.4

mononucleosome DNA for smFRET showed a binding signal (fold DNA breathing (reference)) [1] of 1 and a binding signal (fold DNA breathing vs unacetylated) [2] of 7.
